Experimental data: the supplement of paper PMC10065799, “High-throughput profiling of sequence recognition by tyrosine kinases and SH2 domains using bacterial peptide display” (eLife, 2023)

Key:
Grb2 SH2 = Grb2 SH2 (UniProt P62993); assay: SH2 binding enrichment of the phosphorylated peptide, bacterial display (enrichment ratio); higher = better substrate or ligand; peptides without Tyr show the background
c-Src SH2 = assay: as above
SHP2-C SH2 = assay: as above
Hck = Hck (UniProt P08631); assay: phosphorylation enrichment, bacterial display (enrichment ratio); higher = better substrate or ligand; peptides without Tyr show the background
Hck, sequence (P08631 whole entry, looked up): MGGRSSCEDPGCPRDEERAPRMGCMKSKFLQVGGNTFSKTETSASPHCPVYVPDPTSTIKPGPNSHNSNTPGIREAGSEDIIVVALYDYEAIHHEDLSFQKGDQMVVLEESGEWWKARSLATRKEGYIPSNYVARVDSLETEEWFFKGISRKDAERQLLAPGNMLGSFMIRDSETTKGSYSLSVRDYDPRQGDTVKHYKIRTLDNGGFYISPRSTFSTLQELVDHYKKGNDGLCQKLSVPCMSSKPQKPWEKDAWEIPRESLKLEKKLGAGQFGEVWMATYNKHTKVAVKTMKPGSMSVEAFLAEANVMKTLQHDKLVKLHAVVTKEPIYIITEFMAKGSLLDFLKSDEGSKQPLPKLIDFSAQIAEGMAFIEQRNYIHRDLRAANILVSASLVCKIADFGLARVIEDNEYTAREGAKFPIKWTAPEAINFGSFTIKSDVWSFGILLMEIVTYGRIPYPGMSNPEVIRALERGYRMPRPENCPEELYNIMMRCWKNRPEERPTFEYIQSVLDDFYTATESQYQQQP

EPHB2 = EPHB2 (UniProt P29323); assay: as above
EPHB2, sequence (P29323 whole entry, looked up): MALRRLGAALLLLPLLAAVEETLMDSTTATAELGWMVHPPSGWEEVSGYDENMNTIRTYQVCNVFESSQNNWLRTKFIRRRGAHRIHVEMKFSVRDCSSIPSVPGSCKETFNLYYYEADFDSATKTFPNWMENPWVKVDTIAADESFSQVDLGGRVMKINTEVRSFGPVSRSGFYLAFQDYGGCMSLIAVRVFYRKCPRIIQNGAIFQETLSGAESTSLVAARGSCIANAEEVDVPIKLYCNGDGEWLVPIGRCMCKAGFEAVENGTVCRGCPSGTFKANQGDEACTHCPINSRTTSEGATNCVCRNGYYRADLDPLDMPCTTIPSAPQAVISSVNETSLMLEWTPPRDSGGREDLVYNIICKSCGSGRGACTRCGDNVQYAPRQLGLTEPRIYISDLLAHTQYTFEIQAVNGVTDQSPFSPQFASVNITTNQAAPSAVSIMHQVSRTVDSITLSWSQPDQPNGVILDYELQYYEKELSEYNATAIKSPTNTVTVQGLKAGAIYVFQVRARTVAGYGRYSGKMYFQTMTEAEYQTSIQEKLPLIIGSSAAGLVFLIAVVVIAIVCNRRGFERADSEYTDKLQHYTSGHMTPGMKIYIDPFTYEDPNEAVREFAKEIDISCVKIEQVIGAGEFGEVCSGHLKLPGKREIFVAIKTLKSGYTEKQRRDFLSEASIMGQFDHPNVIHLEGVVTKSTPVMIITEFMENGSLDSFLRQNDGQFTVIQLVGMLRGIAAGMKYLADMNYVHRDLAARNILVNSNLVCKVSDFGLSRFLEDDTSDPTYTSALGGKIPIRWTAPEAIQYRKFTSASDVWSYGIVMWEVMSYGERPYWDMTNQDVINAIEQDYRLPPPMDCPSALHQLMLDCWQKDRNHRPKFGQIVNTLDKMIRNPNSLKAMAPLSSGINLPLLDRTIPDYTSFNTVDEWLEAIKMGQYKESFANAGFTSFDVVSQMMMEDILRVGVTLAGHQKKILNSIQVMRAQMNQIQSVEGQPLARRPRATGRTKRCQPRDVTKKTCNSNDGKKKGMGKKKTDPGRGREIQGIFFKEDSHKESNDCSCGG

Jak2 = Jak2 (UniProt O60674); assay: as above
Fer (mouse) = assay: as above
FGFR3 = FGFR3 (UniProt P22607); assay: as above
FGFR3, sequence (P22607 whole entry, looked up): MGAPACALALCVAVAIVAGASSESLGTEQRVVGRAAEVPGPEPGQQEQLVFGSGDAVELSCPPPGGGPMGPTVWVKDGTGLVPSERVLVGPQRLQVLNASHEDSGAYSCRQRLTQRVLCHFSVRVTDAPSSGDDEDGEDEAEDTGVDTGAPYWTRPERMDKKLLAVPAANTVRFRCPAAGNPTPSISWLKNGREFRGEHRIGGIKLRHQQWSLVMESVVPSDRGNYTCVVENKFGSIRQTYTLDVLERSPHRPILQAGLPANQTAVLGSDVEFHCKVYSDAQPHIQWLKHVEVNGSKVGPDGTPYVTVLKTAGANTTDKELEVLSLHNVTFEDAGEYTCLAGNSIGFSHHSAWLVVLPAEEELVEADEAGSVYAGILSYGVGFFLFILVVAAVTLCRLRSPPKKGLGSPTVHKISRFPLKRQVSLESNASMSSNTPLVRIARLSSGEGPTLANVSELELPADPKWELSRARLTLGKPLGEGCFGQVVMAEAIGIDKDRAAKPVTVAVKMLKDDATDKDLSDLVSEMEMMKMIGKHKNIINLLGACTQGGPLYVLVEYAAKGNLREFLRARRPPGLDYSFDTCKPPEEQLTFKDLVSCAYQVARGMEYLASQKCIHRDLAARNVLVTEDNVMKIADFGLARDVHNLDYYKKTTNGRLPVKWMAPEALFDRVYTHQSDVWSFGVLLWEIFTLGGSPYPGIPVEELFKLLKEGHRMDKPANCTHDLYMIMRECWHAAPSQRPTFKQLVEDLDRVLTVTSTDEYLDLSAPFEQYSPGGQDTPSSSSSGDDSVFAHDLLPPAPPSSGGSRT

AncSZ = assay: as above
FGFR1 = FGFR1 (UniProt P11362); assay: as above
FGFR1, sequence (P11362 whole entry, looked up): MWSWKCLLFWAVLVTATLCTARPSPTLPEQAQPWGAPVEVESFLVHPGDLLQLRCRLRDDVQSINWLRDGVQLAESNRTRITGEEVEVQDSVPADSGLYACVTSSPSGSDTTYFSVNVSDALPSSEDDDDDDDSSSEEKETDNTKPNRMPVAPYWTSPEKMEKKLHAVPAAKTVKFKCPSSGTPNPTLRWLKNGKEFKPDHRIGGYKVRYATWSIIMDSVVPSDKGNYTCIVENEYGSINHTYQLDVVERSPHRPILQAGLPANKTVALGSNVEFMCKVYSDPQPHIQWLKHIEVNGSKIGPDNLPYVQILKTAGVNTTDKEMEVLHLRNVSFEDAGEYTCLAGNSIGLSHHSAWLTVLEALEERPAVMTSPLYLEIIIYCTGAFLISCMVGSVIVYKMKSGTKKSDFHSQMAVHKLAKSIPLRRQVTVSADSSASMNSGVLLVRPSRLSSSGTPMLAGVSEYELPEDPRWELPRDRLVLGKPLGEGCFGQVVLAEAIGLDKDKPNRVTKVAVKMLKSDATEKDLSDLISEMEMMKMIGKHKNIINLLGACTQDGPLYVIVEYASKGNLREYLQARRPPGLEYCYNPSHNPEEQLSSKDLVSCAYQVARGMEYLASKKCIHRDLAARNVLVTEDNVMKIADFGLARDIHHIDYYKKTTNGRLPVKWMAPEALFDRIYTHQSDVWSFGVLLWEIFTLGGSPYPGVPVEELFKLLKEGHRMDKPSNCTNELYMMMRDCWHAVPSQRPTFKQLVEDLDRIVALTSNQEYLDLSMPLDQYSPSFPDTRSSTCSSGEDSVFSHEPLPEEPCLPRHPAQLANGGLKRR

c-Src = assay: as above
MERTK = MERTK (UniProt Q12866); assay: as above
EPHB1 = EPHB1 (UniProt P54762); assay: as above
EPHB1, sequence (P54762 whole entry, looked up): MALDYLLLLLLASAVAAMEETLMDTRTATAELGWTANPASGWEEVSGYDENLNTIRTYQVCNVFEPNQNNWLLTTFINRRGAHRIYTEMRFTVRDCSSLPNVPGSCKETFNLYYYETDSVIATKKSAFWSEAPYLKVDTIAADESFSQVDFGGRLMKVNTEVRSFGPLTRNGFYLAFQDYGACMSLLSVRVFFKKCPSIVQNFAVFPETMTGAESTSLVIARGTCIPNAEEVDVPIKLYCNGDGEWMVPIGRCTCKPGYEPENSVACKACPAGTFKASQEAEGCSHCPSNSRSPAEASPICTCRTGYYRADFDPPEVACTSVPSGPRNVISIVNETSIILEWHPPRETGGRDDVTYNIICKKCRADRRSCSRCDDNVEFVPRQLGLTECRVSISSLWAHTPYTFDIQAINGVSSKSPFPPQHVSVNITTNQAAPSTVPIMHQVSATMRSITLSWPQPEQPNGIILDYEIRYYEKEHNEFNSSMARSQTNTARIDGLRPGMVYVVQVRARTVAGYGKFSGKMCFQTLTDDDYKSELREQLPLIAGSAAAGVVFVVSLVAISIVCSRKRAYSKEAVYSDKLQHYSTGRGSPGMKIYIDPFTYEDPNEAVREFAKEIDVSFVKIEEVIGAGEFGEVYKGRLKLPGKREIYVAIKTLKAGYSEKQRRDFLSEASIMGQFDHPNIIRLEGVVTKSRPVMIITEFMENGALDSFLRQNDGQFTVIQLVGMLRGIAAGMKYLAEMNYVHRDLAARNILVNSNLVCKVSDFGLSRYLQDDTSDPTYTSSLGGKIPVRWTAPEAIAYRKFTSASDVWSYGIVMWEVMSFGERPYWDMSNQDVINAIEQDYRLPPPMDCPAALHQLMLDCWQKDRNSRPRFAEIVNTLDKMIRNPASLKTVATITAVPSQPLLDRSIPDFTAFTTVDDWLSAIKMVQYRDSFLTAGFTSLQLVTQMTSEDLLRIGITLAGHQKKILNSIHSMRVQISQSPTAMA

Fyn = Fyn (UniProt P06241); assay: as above
Fes = Fes (UniProt P07332); assay: as above
Fes, sequence (P07332 whole entry, looked up): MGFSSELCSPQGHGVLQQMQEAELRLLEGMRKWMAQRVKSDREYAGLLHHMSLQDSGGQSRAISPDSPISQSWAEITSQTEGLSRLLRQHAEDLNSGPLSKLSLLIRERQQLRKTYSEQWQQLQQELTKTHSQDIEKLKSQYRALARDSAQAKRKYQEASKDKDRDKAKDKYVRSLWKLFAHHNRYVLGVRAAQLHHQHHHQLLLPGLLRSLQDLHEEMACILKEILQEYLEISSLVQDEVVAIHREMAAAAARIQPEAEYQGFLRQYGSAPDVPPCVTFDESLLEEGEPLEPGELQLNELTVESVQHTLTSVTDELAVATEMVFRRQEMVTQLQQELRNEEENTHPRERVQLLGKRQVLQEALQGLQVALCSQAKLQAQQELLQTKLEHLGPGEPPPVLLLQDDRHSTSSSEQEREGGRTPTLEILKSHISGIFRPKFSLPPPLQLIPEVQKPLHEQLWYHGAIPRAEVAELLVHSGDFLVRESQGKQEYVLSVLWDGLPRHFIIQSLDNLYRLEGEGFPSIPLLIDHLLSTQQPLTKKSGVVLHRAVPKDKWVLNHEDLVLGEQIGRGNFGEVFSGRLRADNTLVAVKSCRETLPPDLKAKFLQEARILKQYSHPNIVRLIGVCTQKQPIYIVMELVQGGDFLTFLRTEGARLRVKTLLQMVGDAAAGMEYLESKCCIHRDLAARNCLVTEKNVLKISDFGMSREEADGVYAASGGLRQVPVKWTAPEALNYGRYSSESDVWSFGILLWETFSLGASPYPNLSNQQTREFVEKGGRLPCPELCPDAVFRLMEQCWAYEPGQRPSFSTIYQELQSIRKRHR

c-Abl (mouse) = assay: as above
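Throughout, for SH2 binding enrichment of the phosphorylated peptide, bacterial display: peptide library displayed on the E. coli surface as eCPX fusions, selected cells deep-sequenced, score is each peptide's frequency after selection divided by its frequency in the input.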
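Throughout, for phosphorylation enrichment, bacterial display: 11-residue human phosphosite peptides and single-mutation variants displayed on the E. coli surface, counted by deep sequencing, each peptide's frequency after selection divided by its frequency in the unselected input library; frequency after pTyr selection over input frequency; kinase dosed for 20-30% of maximal phosphorylation in three min.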

Row | SH2 binding enrichment (Grb2 SH2) | SH2 binding enrichment (c-Src SH2) | SH2 binding enrichment (SHP2-C SH2) | Sequence | phosphorylation enrichment (Hck) | phosphorylation enrichment (EPHB2) | phosphorylation enrichment (Jak2) | phosphorylation enrichment (Fer (mouse)) | phosphorylation enrichment (FGFR3) | phosphorylation enrichment (AncSZ) | phosphorylation enrichment (FGFR1) | phosphorylation enrichment (c-Src) | phosphorylation enrichment (MERTK) | phosphorylation enrichment (EPHB1) | phosphorylation enrichment (Fyn) | phosphorylation enrichment (Fes) | phosphorylation enrichment (c-Abl (mouse))
1 | 0.742 | 0.719 | 0.605 | FGISGYVVDSV [MAP2K3_Y214_L215V] | 0.49 | 0.517 | 0.761 | 0.421 | 0.623 | 0.775 | 0.478 | 0.412 | 0.443 | 0.543 | 0.449 | 0.956 | 0.532
2 | 0.849 | 0.479 | 0.571 | FKGKKYKPLDL [RPL35_Y78_YF] | 0.48 | 0.361 | 0.486 | 0.481 | 0.413 | 0.577 | 0.376 | 0.533 | 0.337 | 0.421 | 0.467 | 0.571 | 0.544
3 | 0.824 | 0.478 | 0.857 | FLAVGDHKPHI [IDS_Y225_Y225D] | 0.379 | 0.422 | 0.41 | 0.197 | 0.35 | 0.431 | 0.384 | 0.327 | 0.271 | 0.375 | 0.433 | 0.462 | 0.365
4 | 2.26 | 1.51 | 1.84 | FLLRVYSIFSK [SGCE_Y38_T36R] | 0.504 | 0.402 | 0.804 | 0.433 | 1.28 | 0.886 | 0.574 | 1.49 | 0.634 | 0.321 | 0.437 | 1.02 | 0.987
5 | 0.895 | 0.518 | 0.667 | FLNSIYKCRDE [ROS1_Y2227_S2229C] | 0.572 | 0.514 | 1.24 | 0.477 | 0.662 | 0.953 | 0.579 | 0.774 | 0.311 | 0.463 | 0.488 | 0.909 | 0.78
6 | 0.935 | 1 | 0.913 | FRPPFYHRNCM [HGD_Y334_YF] | 0.48 | 0.489 | 0.761 | 0.489 | 0.605 | 0.921 | 0.426 | 0.402 | 0.426 | 0.417 | 0.472 | 1.04 | 0.649
7 | 0.952 | 0.607 | 0.655 | FSTPPYLLEAA [BRIP1_Y921_S919P_YF] | 0.434 | 0.601 | 0.909 | 0.579 | 0.707 | 0.95 | 0.63 | 0.669 | 0.497 | 0.521 | 0.619 | 1 | 0.76
8 | 0.811 | 0.606 | 0.674 | GARGRYIMGGP [TNK1_Y277_V278I] | 0.428 | 0.462 | 0.531 | 0.4 | 0.4 | 0.433 | 0.789 | 0.522 | 0.468 | 0.39 | 0.433 | 0.547 | 0.512
9 | 0.906 | 0.718 | 0.485 | GEDPIYVTLEG [RTKtide_2018] | 3.44 | 6.76 | 1.2 | 3.86 | 3.4 | 1.81 | 4.71 | 3.9 | 2.29 | 5.64 | 5.05 | 1.47 | 1.7
10 | 0.827 | 0.669 | 0.848 | GEYYRYLAEVA [YWHAG_Y133_D129E] | 1.4 | 2.05 | 4.37 | 0.374 | 7.42 | 2.12 | 9.65 | 2.34 | 1.73 | 1.13 | 1.52 | 0.858 | 1.88
11 | 1.01 | 0.505 | 0.688 | GFEEAYSVSKK [PAFAH1B1_Y28_F31S_YF] | 0.487 | 0.353 | 0.853 | 0.39 | 0.492 | 0.697 | 0.374 | 0.65 | 0.377 | 0.355 | 0.403 | 0.764 | 0.464
12 | 0.928 | 0.574 | 0.613 | GGGGGYNCSSG [FUS_Y232_R234C] | 0.411 | 0.432 | 0.614 | 0.415 | 0.626 | 0.563 | 0.378 | 0.355 | 0.342 | 0.402 | 0.41 | 0.666 | 0.534

The remaining lines, values behind:

Row | Sequence | SH2 binding enrichment (Grb2 SH2) | SH2 binding enrichment (c-Src SH2) | SH2 binding enrichment (SHP2-C SH2) | phosphorylation enrichment (Hck) | phosphorylation enrichment (EPHB2) | phosphorylation enrichment (Jak2) | phosphorylation enrichment (Fer (mouse)) | phosphorylation enrichment (FGFR3) | phosphorylation enrichment (AncSZ) | phosphorylation enrichment (FGFR1) | phosphorylation enrichment (c-Src) | phosphorylation enrichment (MERTK) | phosphorylation enrichment (EPHB1) | phosphorylation enrichment (Fyn) | phosphorylation enrichment (Fes) | phosphorylation enrichment (c-Abl (mouse))
13 | FGLQAYTEVKT [ALDH2_Y502_YF] | 0.869 | 7.17 | 2.52 | 0.657 | 0.609 | 1.13 | 0.608 | 0.783 | 1.03 | 0.584 | 0.414 | 0.452 | 0.715 | 0.498 | 1.34 | 0.727
14 | FGPPQYNIQFS [ERBB2IP_Y977_YF] | 0.907 | 0.592 | 0.806 | 0.405 | 0.44 | 0.741 | 0.342 | 0.508 | 0.768 | 0.447 | 0.395 | 0.311 | 0.524 | 0.364 | 0.779 | 0.641
15 | FGRTFYNQANM [MCCC2_Y196_I200N] | 0.706 | 0.497 | 0.556 | 0.503 | 0.509 | 0.994 | 0.51 | 0.695 | 0.939 | 0.433 | 0.493 | 0.411 | 0.786 | 0.377 | 1.06 | 0.842
16 | FHKALYTVRTF [PDE6C_Y266_S270T_YF] | 0.853 | 0.536 | 0.722 | 0.67 | 0.529 | 0.907 | 0.427 | 0.691 | 0.914 | 0.582 | 0.729 | 0.523 | 0.567 | 0.581 | 1.02 | 0.838
17 | FIGCIYLYLTK [GARS1_Y414_R412C] | 1.51 | 1.04 | 1.53 | 0.373 | 0.451 | 1.28 | 0.486 | 0.79 | 1.02 | 0.535 | 0.704 | 0.435 | 0.614 | 0.393 | 0.96 | 0.746
18 | FIILIYAMKKK [SLCO1B1_Y645_YF] | 1.83 | 0.965 | 1.66 | 0.465 | 0.385 | 0.447 | 0.354 | 0.377 | 0.323 | 0.509 | 0.32 | 1.35 | 0.179 | 0.321 | 0.583 | 0.51
19 | FKNGDYSEVMK [LCT_Y1638_N1639S] | 1.11 | 1.84 | 0.739 | 0.413 | 0.877 | 0.686 | 0.362 | 0.468 | 0.697 | 0.57 | 0.574 | 0.433 | 0.859 | 0.42 | 0.709 | 0.429
20 | FKRAVYCIIGR [NUP93_Y391_YF] | 1.01 | 1.06 | 0.686 | 0.938 | 0.617 | 0.772 | 0.529 | 0.536 | 0.952 | 0.511 | 0.809 | 1.13 | 0.576 | 0.682 | 0.9 | 0.776
21 | FLENFYDLKKD [MMP3_Y42_YF] | 0.821 | 0.519 | 0.788 | 1.92 | 0.563 | 0.922 | 0.472 | 0.551 | 1.24 | 0.452 | 1.9 | 0.549 | 0.453 | 2.57 | 1.02 | 0.663
22 | FRVAGYKTQGG [TIA1_Y383_E384K_YF] | 0.825 | 0.489 | 0.678 | 0.401 | 0.468 | 0.558 | 0.273 | 0.468 | 0.533 | 0.417 | 0.342 | 0.436 | 0.379 | 0.668 | 0.624 | 0.686
23 | FSLPAFMDRRD [COX4I1_Y38_Y38F] | 1.02 | 0.639 | 1.03 | 0.41 | 0.456 | 0.807 | 0.455 | 0.537 | 0.947 | 0.473 | 0.459 | 0.4 | 0.396 | 0.458 | 0.81 | 0.497
24 | FTFDPYSEEDP [IL2RB_Y387_YF] | 1.09 | 0.651 | 0.823 | 0.562 | 0.642 | 1.17 | 0.686 | 0.698 | 1.08 | 0.61 | 1.18 | 0.426 | 0.694 | 0.839 | 1.23 | 0.772
25 | FYLGAYDRFLP [SLC22A5_Y486_V481F] | 1.18 | 1.16 | 1.37 | 3.38 | 2.06 | 1.11 | 1.22 | 0.831 | 1.37 | 0.712 | 3.62 | 4.1 | 0.938 | 2.4 | 1.28 | 0.829
26 | GADDSYFTARS [ZAP70_Y492_YF] | 0.723 | 0.402 | 0.566 | 0.444 | 0.44 | 0.577 | 0.417 | 0.51 | 0.657 | 0.557 | 0.417 | 0.406 | 0.299 | 0.457 | 0.79 | 0.401
27 | GANSEYIIAEK [ECHS1_Y35_F33S] | 1 | 0.435 | 0.487 | 0.587 | 0.618 | 1.1 | 0.468 | 0.61 | 1.26 | 0.483 | 0.646 | 0.581 | 0.711 | 0.64 | 1.01 | 0.764
28 | GASRRYGSGVS [NEU1_Y242_W240R] | 0.852 | 0.383 | 0.565 | 0.437 | 0.48 | 0.436 | 0.43 | 0.439 | 0.582 | 0.393 | 0.41 | 0.509 | 0.429 | 0.384 | 0.539 | 0.437
29 | GDPTEYFITAI [IGSF22_Y501_S503I_YF] | 0.786 | 0.499 | 0.467 | 0.461 | 0.644 | 1.31 | 0.404 | 1.11 | 1.55 | 1.07 | 0.555 | 0.482 | 0.584 | 0.445 | 1.08 | 0.911
30 | GFEEAYSVFKK [PAFAH1B1_Y28_YF] | 1.03 | 0.605 | 1.76 | 2.51 | 0.379 | 0.514 | 0.365 | 0.412 | 0.803 | 0.423 | 3.97 | 0.544 | 0.339 | 1.29 | 0.696 | 0.756
31 | GFRVCYTPDSR [PTPRF_Y451_Y450C_YF] | 0.787 | 0.444 | 0.687 | 0.507 | 0.512 | 1.01 | 0.548 | 0.691 | 1.26 | 0.472 | 0.451 | 0.419 | 0.513 | 0.397 | 1.34 | 0.777
32 | GGRKGYGDFSR [RECQL5_Y478] | 1.15 | 0.674 | 0.798 | 0.33 | 0.354 | 0.422 | 0.352 | 0.363 | 0.416 | 0.345 | 0.418 | 0.425 | 0.412 | 0.334 | 0.622 | 0.944
33 | GGSDCYGSLRP [MYLK_Y846_R845C] | 0.694 | 0.36 | 0.608 | 3.08 | 0.508 | 0.792 | 0.558 | 0.566 | 0.703 | 0.351 | 2.75 | 0.429 | 0.466 | 2.79 | 0.887 | 0.746
